Measured values from patent publication US20160052997A1.
Values joined by “and” are separate entries in the source; they are usually repeats but may differ in a detail not shown here. Identical values can stand only once. Like-named read-outs stand apart in the source and are kept apart here.

Columns and labels:
[1] = biological target: purified recombinant HA protein of H1N1 (A/Texas/05/09) (Influenza A virus A/Texas/05/09 (H1N1))
[2] = biological target: purified recombinant HA protein of H1N1 (A/Ohio/07/09) (Influenza A virus A/Ohio/07/09 (H1N1))
[3] = biological target: purified recombinant HA protein of H7N9 (A/Anhui/1/2013) (Influenza A virus A/Anhui/1/2013 (H7N9))
[4] = biological target: purified recombinant HA protein of H7N9 (A/Shanghai/1/2013) (Influenza A virus A/Shanghai/1/2013 (H7N9))
[5] = biological target: purified recombinant HA protein of H3N2 (A/Brisbane/10/07) (Influenza A virus A/Brisbane/10/07 (H3N2))
[6] = biological target: purified recombinant HA protein of H3N2 (A/Wisconsin/67/05) (Influenza A virus A/Wisconsin/67/05 (H3N2))
[7] = biological target: purified recombinant HA protein of H3N2 (A/Philippines/2/82) (Influenza A virus A/Philippines/2/82 (H3N2))
[8] = biological target: purified recombinant HA protein of H5N1 (A/Vietnam/1203/04) (Influenza A virus A/Vietnam/1203/04 (H5N1))
[9] = biological target: purified recombinant HA protein of H3N2 (A/Brisbane/10/07) (Influenza A virus A/Brisbane/10/07 (H3N2)); test: SPR, Biacore T200, HA captured via anti-6x his tag antibody, 25 C
[10] = biological target: purified recombinant HA protein of H3N2 (A/Wisconsin/67/05) (Influenza A virus A/Wisconsin/67/05 (H3N2)); test: as above
[11] = biological target: purified recombinant HA protein of H7N9 (A/Shanghai/1/2013) (Influenza A virus A/Shanghai/1/2013 (H7N9)); test: as above
[12] = biological target: purified recombinant HA protein of H5N1 (A/Vietnam/1203/04) (Influenza A virus A/Vietnam/1203/04 (H5N1)); test: as above
[13] = biological target: purified recombinant HA protein of H7N9 (A/Anhui/1/2013) (Influenza A virus A/Anhui/1/2013 (H7N9)); test: as above
[14] = biological target: purified recombinant HA protein of H3N2 (A/Philippines/2/82) (Influenza A virus A/Philippines/2/82 (H3N2)); test: as above
[15] = biological target: purified recombinant HA protein of H1N1 (A/Texas/05/09) (Influenza A virus A/Texas/05/09 (H1N1)); test: as above
[16] = biological target: purified recombinant HA protein of H1N1 (A/Ohio/07/09) (Influenza A virus A/Ohio/07/09 (H1N1)); test: as above
[17] = biological target: purified recombinant HA protein of H7N7 (A/England/268/96) (Influenza A virus A/England/268/96 (H7N7)); test: as above
[18] = biological target: purified recombinant HA protein of H7N7 (A/England/268/96) (Influenza A virus A/England/268/96 (H7N7))
[19] = biological target: HA of A/Anhui/1/2013 (H7N9) virus (Influenza A virus A/Anhui/1/2013 (H7N9)); test: cell-based or functional assay
[20] = biological target: HA of A/Ohio/07/2009 (H1N1) virus (Influenza A virus A/Ohio/07/2009 (H1N1)); test: cell-based or functional assay
[21] = biological target: HA of A/Texas/05/2009 (H1N1) virus (Influenza A virus A/Texas/05/2009 (H1N1)); test: cell-based or functional assay
[22] = biological target: HA of A/Shanghai/2/2013 (H7N9) virus (Influenza A virus A/Shanghai/2/2013 (H7N9)); test: cell-based or functional assay
[23] = biological target: HA of A/ck/HK/G9/97 (H9N2) virus (Influenza A virus A/ck/HK/G9/97 (H9N2)); test: cell-based or functional assay
[24] = biological target: HA of A/Ann Arbor/6/60 ca (H2N2) virus (Influenza A virus A/Ann Arbor/6/60 ca (H2N2)); test: cell-based or functional assay
[25] = biological target: HA of A/Perth/16/09 (H3N2) virus (Influenza A virus A/Perth/16/09 (H3N2)); test: cell-based or functional assay
[26] = biological target: HA of Anhui/1/05 (H5N1) virus (Influenza A virus A/Anhui/1/05 (H5N1)); test: cell-based or functional assay
[27] = biological target: HA of A/Sydney/5/97 (H3N2) virus (Influenza A virus A/Sydney/5/97 (H3N2)); test: cell-based or functional assay
[28] = biological target: HA of A/Solomon Islands/2006 (H1N1) virus (Influenza A virus A/Solomon Islands/3/2006 (H1N1)); test: cell-based or functional assay
[29] = biological target: HA of A/Ohio/83 (H1N1) virus (Influenza A virus A/Ohio/83 (H1N1)); test: cell-based or functional assay
[30] = biological target: HA of A/Beijing/32/92-R-H3N2 PR8 virus (Influenza A virus A/Beijing/32/92 (H3N2)); test: cell-based or functional assay
[31] = biological target: HA of A/PuertoRico/8/34 (H1N1) virus (Influenza A virus A/PuertoRico/8/34 (H1N1)) (UniProt P03452); test: cell-based or functional assay

Chain of CT149 (antibody) (VH): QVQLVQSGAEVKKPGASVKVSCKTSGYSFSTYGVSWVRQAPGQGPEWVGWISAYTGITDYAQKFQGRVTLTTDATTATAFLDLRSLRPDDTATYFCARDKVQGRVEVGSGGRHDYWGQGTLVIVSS
Chain of CT149 (antibody) (VL): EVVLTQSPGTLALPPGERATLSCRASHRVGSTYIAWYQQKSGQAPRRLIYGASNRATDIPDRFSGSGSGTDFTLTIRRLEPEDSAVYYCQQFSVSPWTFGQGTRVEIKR

CT149 (antibody)
Kd [1]: 33.8 nM | Kd [2]: 51.3 nM | Kd [3]: 0.183 nM | Kd [4]: 0.149 nM | Kd [5]: 1.81 nM | Kd [6]: 88.6 nM | Kd [7]: 0.0456 nM | Kd [8]: 2.94 nM | Kd [9]: 1.77 nM and 1.85 nM | koff [9]: 0.000316 s⁻¹ and 0.000319 s⁻¹ | kon [9]: 179000 M⁻¹ s⁻¹ and 173000 M⁻¹ s⁻¹ | Kd [10]: 86 nM and 91.3 nM | koff [10]: 0.00723 s⁻¹ and 0.00745 s⁻¹ | kon [10]: 84100 M⁻¹ s⁻¹ and 81600 M⁻¹ s⁻¹ | Kd [11]: 0.142 nM and 0.155 nM | koff [11]: 0.0028 s⁻¹ and 0.00285 s⁻¹ | kon [11]: 1.97e+07 M⁻¹ s⁻¹ and 1.83e+07 M⁻¹ s⁻¹ | Kd [12]: 2.96 nM and 2.93 nM | koff [12]: 0.00391 s⁻¹ and 0.00386 s⁻¹ | kon [12]: 1.32e+06 M⁻¹ s⁻¹ | Kd [13]: 0.165 nM and 0.201 nM | koff [13]: 0.00326 s⁻¹ and 0.00316 s⁻¹ | kon [13]: 1.98e+07 M⁻¹ s⁻¹ and 1.57e+07 M⁻¹ s⁻¹ | Kd [14]: 0.0502 nM and 0.0411 nM | koff [14]: 1.47e-05 s⁻¹ and 1.17e-05 s⁻¹ | kon [14]: 292000 M⁻¹ s⁻¹ and 285000 M⁻¹ s⁻¹ | Kd [15]: 33.6 nM and 34.1 nM | koff [15]: 0.0558 s⁻¹ and 0.0562 s⁻¹ | kon [15]: 1.66e+06 M⁻¹ s⁻¹ and 1.65e+06 M⁻¹ s⁻¹ | Kd [16]: 50.9 nM and 51.7 nM | koff [16]: 0.0379 s⁻¹ and 0.0387 s⁻¹ | kon [16]: 746000 M⁻¹ s⁻¹ and 747000 M⁻¹ s⁻¹ | Kd [17]: 4.4 nM and 4.43 nM | koff [17]: 0.00176 s⁻¹ and 0.0018 s⁻¹ | kon [17]: 401000 M⁻¹ s⁻¹ and 406000 M⁻¹ s⁻¹ | Kd [18]: 4.41 nM

CT-P27
EC50, microneutralization test (Contract Lab A) [19]: 2.38 µg/mL | EC50, microneutralization test [20]: 0.29 µg/mL | EC50, microneutralization test [21]: 2.05 µg/mL | EC50, microneutralization test (Contract Lab A) [22]: 3.55 µg/mL | EC50, microneutralization test (Contract Lab B) [22]: 13.1 µg/mL | EC50, microneutralization test [23]: 5.09 µg/mL | EC50, microneutralization test [24]: 12.7 µg/mL | EC50, microneutralization test [25]: 3.99 µg/mL | EC50, microneutralization test [26]: 8.02 µg/mL | EC50, microneutralization test [27]: 6.53 µg/mL | EC50, microneutralization test [28]: 0.27 µg/mL | EC50, microneutralization test [29]: 0.73 µg/mL | EC50, microneutralization test [30]: 3.1 µg/mL | EC50, microneutralization test [31]: 0.67 µg/mL
